Measured values published in article PMC314469, “Protein Interaction Networks by Proteome Peptide Scanning” (PLoS Biology, 2004).

T1: Boi2 SH3 (BOI2_YEAST), P39969
T1 chain: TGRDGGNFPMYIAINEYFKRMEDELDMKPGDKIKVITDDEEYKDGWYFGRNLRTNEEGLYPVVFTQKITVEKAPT

T2: Yfr024 SH3 (LSB3_YEAST), P43603
T2 chain: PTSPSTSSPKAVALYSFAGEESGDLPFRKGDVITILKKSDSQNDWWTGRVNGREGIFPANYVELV

T3: Rvs167 SH3 (RV167_YEAST), P39743
T3 chain: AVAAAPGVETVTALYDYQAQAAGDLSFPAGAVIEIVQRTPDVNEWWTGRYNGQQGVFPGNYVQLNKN

T4: Boi1 SH3 (BOI1_YEAST), P38041
T4 chain: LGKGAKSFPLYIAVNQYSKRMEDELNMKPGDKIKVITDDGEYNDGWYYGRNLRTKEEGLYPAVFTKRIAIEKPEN

T5: Yhr016c SH3 (YSC84_YEAST), P32793
T5 chain: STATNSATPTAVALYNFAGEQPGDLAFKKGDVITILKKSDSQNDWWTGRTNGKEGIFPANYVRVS


Columns and labels:
Assay in all cases: SPOT array
[1] = target: T1, Boi2 SH3 (BOI2_YEAST), P39969
[2] = target: T2, Yfr024 SH3 (LSB3_YEAST), P43603
[3] = target: T3, Rvs167 SH3 (RV167_YEAST), P39743
[4] = target: T4, Boi1 SH3 (BOI1_YEAST), P38041
[5] = target: T5, Yhr016c SH3 (YSC84_YEAST), P32793

Binder	normalised SPOT signal, Boehringer light units (BLU); mean over the file's lines of this peptide [1]	normalised SPOT signal, Boehringer light units (BLU); mean over the file's lines of this peptide [2]	normalised SPOT signal, Boehringer light units (BLU); mean over the file's lines of this peptide [3]	normalised SPOT signal, Boehringer light units (BLU); mean over the file's lines of this peptide [4]	normalised SPOT signal, Boehringer light units (BLU); mean over the file's lines of this peptide [5]
DLQPLEPKKAAAST [YBL007C 805-818]	104	37.7	30.3	121	0
DSLPKLPFRSWGQP [YBR132C 490-503]	25.7	39100	16100	179	60200
DLPPKFPEKPVHLV [YDR444W 186-199]	25.7	10300	90.9	0	183
DQKPLVPIRIYGAI [YPR023C 316-329]	88.8	5150	114	181	1280
DSDPNTPKKLSSPR [YNL238W 661-674]	22.9	28.1	0	108	156
DSGPQRPKRTRAKG [YDL106C 73-86]	91.1	38900	218	460	4170
DPHPEDPRRIYRIY [YNL021W 81-94]	40.8	161	14.1	660	75.3
DSIPVDPEKVVAIV [YBL015W 216-229]	22.2	0	37.9	50	0
DVLPAGPVRSLEGA [YCR102C 122-135]	45.9	137	0	24.6	221
DLKPAYPGRSAHVV [YJL127C 172-185]	77.4	8830	31.5	20.7	1390
DLPPEPPTKLSDSF [YNL284C-B 1135-1148]	30.6	56.5	30.9	75	105
DSLPFAPLRKVYEL [YBR056W 139-152]	34.7	322	156	61.9	200
DSPPQSPRRSSNSS [YKL185W 464-477]	15.6	15900	41.3	309	3410
DSIPSRPQRRKSVL [YMR221C 258-271]	334	27600	651	1520	4310
DSIPLEPKKAKHLM [YHR118C 82-95]	26.5	141	33.7	389	206
DLNPDAPPKPQLIP [YPL057C 43-56]	41.5	88.2	11	96.1	65.9
DVLPAGPVRSLEGV [YLR460C 130-143]	44	4	32.7	28.2	0
DMVPKHPTKRYVPK [YOR039W 203-216]	114	1770	94.1	160	460
DVIPKKPLKSAADK [YOL055C 314-327]	35.9	359	9.7	142	37
DPLPYSPLKLYDQK [YCR065W 382-395]	134	117	62.6	58.9	216
DRPPDVPRKIIVGR [YBL067C 301-314]	62.3	2970	92.5	96.5	358
DQAPSLPPKPNTQL [YCL008C 158-171]	72.2	17600	32.3	54.8	4710
